1 substance from patent publication US20170082609A1 can be followed below.

Assay [1] deals with CDHR3 Cys529→Tyr variant (human) (UniProt Q6ZTQ4). Kind of assay: cell-based or functional assay.
Assay [2] concerns the target CDHR3 Cys529→Tyr variant with Asn186→Ala (human) (UniProt Q6ZTQ4). Kind of assay: cell-based or functional assay.
The target in assay [3] is human cadherin-related family member 3 (CDHR3), wild-type (human) (UniProt Q6ZTQ4). Nature of the assay: cell-based or functional assay.
Assay [4] addresses CDHR3 Cys529→Tyr variant (human) (UniProt Q6ZTQ4). Kind of assay: virus bound to transfected HeLa cells 2 h p.i., viral RNA by qRT-PCR. (In general: Quantitative PCR measures a nucleic acid by following its amplification.)
Assay [5] concerns the target CDHR3 Cys529→Tyr variant with Asn186→Ala (human) (UniProt Q6ZTQ4). Nature of the assay: virus bound to transfected HeLa cells 2 h p.i., viral RNA by qRT-PCR, against CDHR3 Cys529→Tyr without the mutation.

Some results are limits rather than exact numbers.

In assay [1], “rhinovirus C15 (RV-C15), recombinant virus from the clinical isolate's infectious clone” registered a progeny yield relative to the wild-type CDHR3 of 10 fold and a replication in HeLa-E8 cells (viral RNA from 2 h to 24 h post infection) of over 2 log. This substance came in with a replication in assay [2] of 70%. This substance also came in with a replication (RV-C RNA compared to input) in assay [3] of 2 log. This substance also had a fold binding relative to the wild-type CDHR3 in assay [4] of 10 fold. The percent impairment of virus binding in assay [5] is over 70%.
